# Results as given in patent US20240317834A1, “COMPOSITIONS AND METHODS FOR NEUROLOGICAL DISEASES” (CODA BIOTHERAPEUTICS, INC., priority 2020, published 2024).
# Tested on: Lenti-X 293T cells
# Assay: YFP fluorescence quenching anion reporter plate reader assay of engineered receptors stimulated with acetylcholine or a non-native ligand
# Assay type: cell-based
# Conditions: for percent quench of YFP fluorescence, 10 uM ach: acetylcholine 10 uM; for percent quench of YFP fluorescence, 100 uM ach: acetylcholine 100 uM; for percent quench of YFP fluorescence, 300 uM ach: acetylcholine 300 uM; for percent quench of YFP fluorescence, 500 uM ach: acetylcholine 500 uM; for percent quench of YFP fluorescence, 1 mM ach: acetylcholine 1 mM; for percent quench of YFP fluorescence, 3 mM ach: acetylcholine 3 mM; for percent quench of YFP fluorescence, 10 mM ach: acetylcholine 10 mM
# Summary of the method: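 Lenti-X 293T cells carrying a YFP anion reporter were transiently transfected with channel DNA and assayed the next day in HEPES-buffered ECS at pH 7.2. Ligand (acetylcholine or non-native ligand) was added in NaI-substituted ECS. Percent quench was the mean of the last 10 s relative to the 15 s pre-addition baseline.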
molecule,measurement,setting,value
"CODA1047: engineered chimeric LGIC receptor, R101F, Y210V in SEQ ID NO: 33 (protein, synthetic sequence of chimeric LGIC) MRCSPGGVWLALAASLLHVSLQGEFQRKLYKELVKNYNPLERPVANDSQPLTVYFSLSLLQIMDVDEKNQVLTTNIWLQMSWTDHYLQWNVSEYPGVKTVFFPDGQIWKPDILLYNSADERFDATFHTNVLVNSSGHCQYLPPGIFKSSCPMDLKNFPMDVQTCKLKFGSWSYGGWSLDLQMQEADISGYIPNGEWDLVGIPGKRSERFVECCKEPYPDVTFTVTMRRRMGYYLIQMYIPSLLIVILSWISFWINMDAAPARVGLGITTVLTMTTQSSGSRASLPKVSYVKAIDIWMAVCLLFVFSALLEYAAVNFVSRQHKELLRFRRKRRHHKSPMLNLFQEDEAGEGRFNFSAYGMGPACLQAKDGISVKGANNSNTTNPPPAPSKSPEEMRKLFIQRAKKIDKISRIGFPMAFLIFNMFYWIIYKIVRREDVHNQ",YFP fluorescence quenching using CNL001,"1 nM CNL001, first column",−7.82%
same,YFP fluorescence quenching using CNL001,"1 nM CNL001, second column",−8.382%
same,YFP fluorescence quenching using TC-5619/Bradanicline,1 nM brd,−5.548%
same,YFP fluorescence quenching using TC-5619/Bradanicline,3 nM brd,−9.432%
same,YFP fluorescence quenching using Varenicline,"3 nM var, first column",−3.035
same,YFP fluorescence quenching using Varenicline,"3 nM var, second column",−0.786
same,YFP fluorescence quenching using CNL001,"10 nM CNL001, first column",−5.381%
same,YFP fluorescence quenching using CNL001,"10 nM CNL001, second column",−1.431%
same,YFP fluorescence quenching using TC-5619/Bradanicline,10 nM brd,−3.068%
same,YFP fluorescence quenching using TC-5619/Bradanicline,30 nM brd,2.368%
same,YFP fluorescence quenching using Varenicline,"30 nM var, first column",−5.181
same,YFP fluorescence quenching using Varenicline,"30 nM var, second column",0.669
same,YFP fluorescence quenching using CNL001,"50 nM CNL001, first column",−0.999%
same,YFP fluorescence quenching using CNL001,"50 nM CNL001, second column",3.909%
same,YFP fluorescence quenching using ABT-126,50 nM abt,−14.1%
same,YFP fluorescence quenching using CNL001,"100 nM CNL001, first column",−0.823%
same,YFP fluorescence quenching using CNL001,"100 nM CNL001, second column",−5.885%
same,YFP fluorescence quenching using ABT-126,100 nM abt,−11.72%
same,YFP fluorescence quenching using TC-5619/Bradanicline,100 nM brd,47.529%
same,YFP fluorescence quenching using ABT-126,300 nM abt,−12.98%
same,YFP fluorescence quenching using TC-5619/Bradanicline,300 nM brd,74.413%
same,YFP fluorescence quenching using Varenicline,"300 nM var, first column",−2.748
same,YFP fluorescence quenching using Varenicline,"300 nM var, second column",−6.708
same,YFP fluorescence quenching using Varenicline,"500 nM var, first column",−9.123
same,YFP fluorescence quenching using Varenicline,"500 nM var, second column",−9.869
same,YFP fluorescence quenching using CNL001,"1 uM CNL001, first column",1.638%
same,YFP fluorescence quenching using CNL001,"1 uM CNL001, second column",3.483%
same,YFP fluorescence quenching using ABT-126,1 uM abt,−15.09%
same,YFP fluorescence quenching using Varenicline,"1 uM var, first column",−6.702
same,YFP fluorescence quenching using Varenicline,"1 uM var, second column",−7.26
same,"percent quench of YFP fluorescence, 30 nM TC-6683",TC-6683 30 nM,−24.195%
same,"percent quench of YFP fluorescence, 300 nM TC-6683",TC-6683 300 nM,−24.234%
same,"percent quench of YFP fluorescence, 3 uM TC-6683",TC-6683 3 uM,−21.291%
same,"percent quench of YFP fluorescence, 30 uM TC-6683",TC-6683 30 uM,−16.363%
same,"percent quench of YFP fluorescence, 100 uM TC-6683",TC-6683 100 uM,−24.9%
same,"percent quench of YFP fluorescence, 10 uM ach",,−4.26%
same,"percent quench of YFP fluorescence, 100 uM ach",,−13.05%
same,"percent quench of YFP fluorescence, 300 uM ach",,−11.73%
same,"percent quench of YFP fluorescence, 500 uM ach",,−10.75%
same,"percent quench of YFP fluorescence, 1 mM ach",,−8.81%
same,"percent quench of YFP fluorescence, 3 mM ach",,−6.77%
same,"percent quench of YFP fluorescence, 10 mM ach",,−1.03%
"CODA1053: engineered chimeric LGIC receptor, R101M, L131A in SEQ ID NO: 33 (protein, synthetic sequence of chimeric LGIC) MRCSPGGVWLALAASLLHVSLQGEFQRKLYKELVKNYNPLERPVANDSQPLTVYFSLSLLQIMDVDEKNQVLTTNIWLQMSWTDHYLQWNVSEYPGVKTVMFPDGQIWKPDILLYNSADERFDATFHTNVAVNSSGHCQYLPPGIFKSSCPMDLKNFPMDVQTCKLKFGSWSYGGWSLDLQMQEADISGYIPNGEWDLVGIPGKRSERFYECCKEPYPDVTFTVTMRRRMGYYLIQMYIPSLLIVILSWISFWINMDAAPARVGLGITTVLTMTTQSSGSRASLPKVSYVKAIDIWMAVCLLFVFSALLEYAAVNFVSRQHKELLRFRRKRRHHKSPMLNLFQEDEAGEGRFNFSAYGMGPACLQAKDGISVKGANNSNTTNPPPAPSKSPEEMRKLFIQRAKKIDKISRIGFPMAFLIFNMFYWIIYKIVRREDVHNQ",YFP fluorescence quenching using CNL001,"1 nM CNL001, first column",−8.554%
same,YFP fluorescence quenching using CNL001,"1 nM CNL001, second column",−13.711%
same,YFP fluorescence quenching using TC-5619/Bradanicline,1 nM brd,0.008%
same,YFP fluorescence quenching using TC-5619/Bradanicline,3 nM brd,43.21%
same,YFP fluorescence quenching using Varenicline,"3 nM var, first column",74.835
same,YFP fluorescence quenching using Varenicline,"3 nM var, second column",76.119
same,YFP fluorescence quenching using CNL001,"10 nM CNL001, first column",39.631%
same,YFP fluorescence quenching using CNL001,"10 nM CNL001, second column",66.809%
same,YFP fluorescence quenching using TC-5619/Bradanicline,10 nM brd,77.672%
same,YFP fluorescence quenching using TC-5619/Bradanicline,30 nM brd,76.277%
same,YFP fluorescence quenching using Varenicline,"30 nM var, first column",77.608
same,YFP fluorescence quenching using Varenicline,"30 nM var, second column",79.015
same,YFP fluorescence quenching using CNL001,"50 nM CNL001, first column",82.122%
same,YFP fluorescence quenching using CNL001,"50 nM CNL001, second column",82.031%
same,YFP fluorescence quenching using ABT-126,50 nM abt,−27.01%
same,YFP fluorescence quenching using CNL001,"100 nM CNL001, first column",83.312%
same,YFP fluorescence quenching using CNL001,"100 nM CNL001, second column",83.986%
same,YFP fluorescence quenching using ABT-126,100 nM abt,−18.76%
same,YFP fluorescence quenching using TC-5619/Bradanicline,100 nM brd,76.856%
same,YFP fluorescence quenching using ABT-126,300 nM abt,−17.8%
same,YFP fluorescence quenching using TC-5619/Bradanicline,300 nM brd,75.32%
same,YFP fluorescence quenching using Varenicline,"300 nM var, first column",80.71
same,YFP fluorescence quenching using Varenicline,"300 nM var, second column",79.002
same,YFP fluorescence quenching using Varenicline,"500 nM var, first column",78.709
same,YFP fluorescence quenching using Varenicline,"500 nM var, second column",78.884
same,YFP fluorescence quenching using CNL001,"1 uM CNL001, first column",84.363%
same,YFP fluorescence quenching using CNL001,"1 uM CNL001, second column",83.877%
same,YFP fluorescence quenching using ABT-126,1 uM abt,−6.55%
same,YFP fluorescence quenching using Varenicline,"1 uM var, first column",79.688
same,YFP fluorescence quenching using Varenicline,"1 uM var, second column",80
same,"percent quench of YFP fluorescence, 10 uM ach",,−3.98%
same,"percent quench of YFP fluorescence, 100 uM ach",,−11%
same,"percent quench of YFP fluorescence, 300 uM ach",,−7.92%
same,"percent quench of YFP fluorescence, 500 uM ach",,7.36%
same,"percent quench of YFP fluorescence, 1 mM ach",,57.28%
same,"percent quench of YFP fluorescence, 3 mM ach",,60.54%
same,"percent quench of YFP fluorescence, 10 mM ach",,79.46%
